Test results taken from paper PMC9882985 (Science Advances, 2023).

What was measured:
[1] = biological target: PSME3 WT-dTomato with SUMO1 conjugation, P61289;P63165; test: FRET; details: in vitro; PSME3-dTomato conjugated with SUMO1 (lane 6); n = 3; parent: est. 55; read off a plot
[2] = biological target: PSME3 WT-dTomato with SUMO3 conjugation, P61289;P55854; test: FRET; details: in vitro; PSME3-dTomato conjugated with SUMO3 (lane 8); n = 3; parent: est. 24; read off a plot
[3] = biological target: PSME3 WT-dTomato with SUMO2 conjugation, P61289;P61956; test: FRET; details: in vitro; PSME3-dTomato conjugated with SUMO2 (lane 7); n = 3; parent: est. 21; read off a plot
[4] = biological target: eYFP-CP2c WT with SUMO3 conjugation; test: FRET; details: in vitro; eYFP-CP2c conjugated with SUMO3 (lane 12); n = 3; parent: est. 13; read off a plot
[5] = biological target: eYFP-CP2c WT with SUMO2 conjugation; test: FRET; details: in vitro, n = 3, parent: est. 13, read off a plot
[6] = biological target: eYFP-CP2c WT with SUMO conjugation (SUMO1), Q9ERA0;P63165; test: FRET; details: in vitro; eYFP-CP2c conjugated with SUMO1 (lane 6); n = 3; parent: est. 75; read off a plot
[7] = biological target: the molecule itself; test: cross-linking + co-IP; DSP XL-IP: live transfected cells crosslinked with 2 mM DSP in PBS 3 hours on ice, lysed, immunoprecipitated, Western blot with or without DTT; cells arrested at G2-M with MG132 (Fig. 4G)

Q: Which response [1] does the source give for “eYFP-CP2c WT (non-SUMOylated) (from UniProt Q9ERA0) SIM m158: VGVID→KGKID” here?
A: The response was 7%.

Q: And the response [2]?
A: The response was 12%.

Q: What about the response [3] of the same molecule?
A: The response was 9%.

Q: With “PSME3 WT-dTomato (non-SUMOylated) (from UniProt P61289) K6R; K12R; K14R; K110R; K123R; K243R” as the molecule, how does the response [4] read?
A: Its response is 7%.

Q: And the response ([5]; eYFP-CP2c conjugated with SUMO2 (lane 11))?
A: The response was 9%.

Q: What does the source list for “PSME3 WT-dTomato (non-SUMOylated) (from UniProt P61289) SIM m70 (ILLTN→IRRTN) + SIM m115 (LVDII→RKDII)”?
A: response ([5]; eYFP-CP2c conjugated with SUMO2 (lane 7)): 16%; response [6]: 11%

B1: Flag-tagged CP2c WT (natural protein, mouse, UniProt Q9ERA0 1-502, looked up)
chain: MAWALKLPLADEVIESGLVQDFDASLSGIGQELGAGAYSMSDVLALPIFKQEESSLPPDNENEILPFQYVLCAATSPAVKLHDETLTYLNQGQSYEIRMLDNRKLGELPELNGKLVKSIFRVVFHDRRLQYTEHQQLEGWRWNRPGDRILDIDIPMSVGVIDPRANPTQLNTVEFLWDPSKRTSVFIQVHCISTEFTMRKHGGEKGVPFRVQIDTFKENGNGEYTEHLHSASCQIKVFKPKGADRKQKIDREKMEKRTPHEKEKYQPSYETTILTECSPWPEITYVNNSPSPGFNSSHSSFSLGEGNGSPNHQPEPPPPVTDNLLPTTTPQEAQQWLHRNRFSTFTRLFTNFSGADLLKLTRDDVIQICGPADGIRLFNALKGRMVRPRLTIYVCQESLQLREQQPQPQPQPQKQEDGDSNGTFFVYHAIYLEELTAVELTEKIAQLFSISPHQISQIYKQGPTGIHVVISDEMVQNFQEEACFILDTMEAETSDSYHVILK
notes: CP2c (Tfcp2), mouse cDNA, in pcDNA3-Flag; In cells part of it is SUMO1-conjugated at K50; also called Flag-CP2c; source: 293T, transfected, in lysate
Q: For B1, which “stoichiometry N” value [7] is on record?
A: Its value is 2.
